Values of other authors in patent US9034821B2, “Pharmaceutical composition” (priority 2011, dated 2015).
Read-outs that look alike come from different tables or passages of the source.

Question: Which “pH of best stability” value (aqueous solutions of different pH) does the source give for “Cys-Tyr-Ile-Gln-Asn-Cys-Pro-Leu-Gly-NH2 [oxytocin]” here?
Answer: 4.5

Question: What about the degradation of oxytocin (buffered aqueous solution of pH 3, stored at 70° C. for 7 days) of the same substance?
Answer: about 15 % (area %)

Question: What about the degradation of oxytocin (buffered aqueous solution, pH 4, stored at 70° C. for 7 days) of the same substance?
Answer: approximately 35 % (area %)
